Reference: patent US20100087631A1 (Eli Lilly, published 2010)

T1: recombinant mouse myostatin (R&D systems, Cat. #788-G8/CF) (mouse, UniProt O08689 268-376)
T1 construct: Bought protein; also called GDF-8; myostatin (R&D Systems 788-G8)
T1 sequence: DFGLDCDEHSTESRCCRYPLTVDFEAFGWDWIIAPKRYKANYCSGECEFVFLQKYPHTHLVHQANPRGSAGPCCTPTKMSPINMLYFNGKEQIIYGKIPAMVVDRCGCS


Assays:
[1] = target: recombinant human HGF (R&D Systems, catalog #294-HG/CF) (human) (UniProt P14210); assay: ELISA, human HGF coated on plate, isotype control at 1 ug/ml (column headed C12 HGF)
Chain of recombinant human HGF (R&D Systems, catalog #294-HG/CF) (human) (P14210 32-728 limits assumed): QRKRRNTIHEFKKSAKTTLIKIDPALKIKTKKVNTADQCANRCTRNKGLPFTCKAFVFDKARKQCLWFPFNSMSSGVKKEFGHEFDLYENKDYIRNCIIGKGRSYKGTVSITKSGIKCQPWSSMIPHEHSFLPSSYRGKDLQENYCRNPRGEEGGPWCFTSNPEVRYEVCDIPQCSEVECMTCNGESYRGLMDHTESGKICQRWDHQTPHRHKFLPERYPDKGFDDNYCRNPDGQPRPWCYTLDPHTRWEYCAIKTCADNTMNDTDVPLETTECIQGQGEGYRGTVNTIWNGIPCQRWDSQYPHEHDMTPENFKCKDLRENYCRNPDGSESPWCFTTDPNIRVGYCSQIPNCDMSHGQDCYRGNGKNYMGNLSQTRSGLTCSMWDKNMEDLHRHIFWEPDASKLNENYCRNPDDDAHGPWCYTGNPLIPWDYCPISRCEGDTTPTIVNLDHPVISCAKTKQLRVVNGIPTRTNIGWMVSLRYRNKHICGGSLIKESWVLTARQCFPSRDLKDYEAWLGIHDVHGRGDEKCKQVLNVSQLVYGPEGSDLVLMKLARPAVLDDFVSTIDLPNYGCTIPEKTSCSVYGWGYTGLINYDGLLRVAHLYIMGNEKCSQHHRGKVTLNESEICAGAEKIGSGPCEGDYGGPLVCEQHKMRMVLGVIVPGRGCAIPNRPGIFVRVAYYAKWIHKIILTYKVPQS

[2] = target: recombinant human HGF (R&D Systems, catalog #294-HG/CF) (human) (UniProt P14210); assay: ELISA, human HGF coated on plate, isotype control at 1 ug/ml (column headed 510C2 HGF)
human GDF-8 (human) [3] = target: human GDF-8 (human) (UniProt O14793); assay: ELISA, human GDF-8 coated on plate, isotype control at 1 ug/ml (column headed C12 GDF-8)
[4] = target: recombinant human GDF-11 (Peprotech, Inc., Cat. #120-11) (human) (UniProt O95390); assay: ELISA, human GDF-11 coated on plate, isotype control at 1 ug/ml (column headed C12 GDF-11)
Chain of recombinant human GDF-11 (Peprotech, Inc., Cat. #120-11) (human) (O95390 299-407 limits assumed): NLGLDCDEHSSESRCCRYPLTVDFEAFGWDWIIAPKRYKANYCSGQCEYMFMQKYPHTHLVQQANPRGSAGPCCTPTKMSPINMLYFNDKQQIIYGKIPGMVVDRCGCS

human GDF-8 (human) [5] = target: human GDF-8 (human) (UniProt O14793); assay: ELISA, human GDF-8 coated on plate, isotype control at 1 ug/ml (column headed 510C2 GDF-8)
[6] = target: recombinant human GDF-11 (Peprotech, Inc., Cat. #120-11) (human) (UniProt O95390); assay: ELISA, human GDF-11 coated on plate, isotype control at 1 ug/ml (column headed 510C2 GDF-11)
[7] = target: T1, recombinant mouse myostatin (R&D …); assay: ELISA, GDF-8 coated on plate (GDF-8 down), Fab titrated, anti-kappa AP detection

| Molecule | average absorbance at 490 nm [1] [OD 490 nm] | average absorbance at 490 nm [2] [OD 490 nm] | average absorbance at 490 nm (human GDF-8 (human) [3]) [OD 490 nm] | average absorbance at 490 nm [4] [OD 490 nm] | average absorbance at 490 nm (human GDF-8 (human) [5]) [OD 490 nm] | average absorbance at 490 nm [6] [OD 490 nm] | IC50 [7] [µg/mL] |
| --- | --- | --- | --- | --- | --- | --- | --- |
| isotype control antibody | 0.049 | 0.0804 | 0.0519 | 0.0487 | 0.0907 | 0.0919 | – |
| C12 Fab (Fab, V domains shown) VH: QLQLQESGPGLVKPSETLSLTCTVSGFSLRKVGSSVSWIRQPPGKGLEWIGHIYWDDDKRLNPSLRNRVTISVDTSKNQFSLKLSSVTAADTAVYYCARRAITTVIGGGTFDLWGQGTLVTVSS VL: DIQMTQSPSSLSASVGDRVTITCSASSSISYMHWYQQKPGKAPKLLIYDTSKLARGVPSRFSGSGSGTDFTLTISSLQPEDFATYYCQQWYLNPLTFGGGTKVEIKR | – | – | – | – | – | – | 0.25 |
